For the first experiment, the target named is HLA-A*0301 (human). As to the kind of experiment: iTopia affinity.
Take VQTSRAAAK [cdr2 379-387 VQTSRAAAK]: the ED50 is 18 µM.
Same read-out and setting: with KEIFSCIKK [cdr2 427-435 KEIFSCIKK] the figure was 13 µM; with RQMNEQHAK [cdr2 74-82 RQMNEQHAK], 58 µM.
As to ESHRKPLKR [cdr2 300-308 ESHRKPLKR], the ED50 turned out to be 19 µM.
Still for that read-out and setting: with QLGATGAYR [cdr2 236-244 QLGATGAYR] the figure was 15 µM; with LQLAAELGK [cdr2 28-36 LQLAAELGK], 15 µM.
Same read-out and setting: with GQGRRSPGK [cdr2 140-148 GQGRRSPGK] the figure was 7.8 µM; with SLAGSDIVK [cdr2 317-325 SLAGSDIVK], 11 µM.
As for LTVPESHRK [cdr2 296-304 LTVPESHRK], the ED50 was determined as 26 µM.
Still for that read-out and setting: next, AQLSLERQK [cdr2 207-215 AQLSLERQK]: 25 µM; LQAQLSLER [cdr2 205-213 LQAQLSLER]: 19 µM.

The next experiment has as its target HLA-A*0301 (human). The experiment in a line: iTopia off-rate.
As for VQTSRAAAK [cdr2 379-387 VQTSRAAAK], the t1/2 amounted to 2.55.
On the same count and under the same terms, next, KEIFSCIKK [cdr2 427-435 KEIFSCIKK]: 5.82; RQMNEQHAK [cdr2 74-82 RQMNEQHAK]: 3.69; ESHRKPLKR [cdr2 300-308 ESHRKPLKR]: 1.49.
On the same count and under the same terms, with QLGATGAYR [cdr2 236-244 QLGATGAYR] the figure was 0.92; with LQLAAELGK [cdr2 28-36 LQLAAELGK], 1.12.
Same read-out and setting: next, GQGRRSPGK [cdr2 140-148 GQGRRSPGK]: 1.64; SLAGSDIVK [cdr2 317-325 SLAGSDIVK]: 0.88.
LTVPESHRK [cdr2 296-304 LTVPESHRK]: the t1/2 amounted to 1.53.
Still for that read-out and setting: with AQLSLERQK [cdr2 207-215 AQLSLERQK] the figure was 0.97; with LQAQLSLER [cdr2 205-213 LQAQLSLER], 0.99.

For a further experiment, the target named is HLA-A*1101 (human). As to the kind of experiment: iTopia affinity.
VQTSRAAAK [cdr2 379-387 VQTSRAAAK]: the ED50 stood at 4.6 µM.
Molecule KEIFSCIKK [cdr2 427-435 KEIFSCIKK] showed an ED50 of 7 µM.
Still for that read-out and setting: next, RQMNEQHAK [cdr2 74-82 RQMNEQHAK]: 11 µM; ESHRKPLKR [cdr2 300-308 ESHRKPLKR]: 26 µM.
The same measure, in the same setting: next, QLGATGAYR [cdr2 236-244 QLGATGAYR]: 27 µM.
As for LQLAAELGK [cdr2 28-36 LQLAAELGK], the ED50 was 7.9 µM.
The same measure, in the same setting: next, GQGRRSPGK [cdr2 140-148 GQGRRSPGK]: 2 µM.
SLAGSDIVK [cdr2 317-325 SLAGSDIVK] showed an ED50 of 2.1 µM.
Same read-out and setting: with LTVPESHRK [cdr2 296-304 LTVPESHRK] the figure was 4.8 µM; with AQLSLERQK [cdr2 207-215 AQLSLERQK], 5.7 µM; with LQAQLSLER [cdr2 205-213 LQAQLSLER], 11 µM.

Another experiment deals with HLA-A*1101 (human). The experiment in a line: iTopia off-rate.
In turn, VQTSRAAAK [cdr2 379-387 VQTSRAAAK] came in with a t1/2 of 1.5.
Take KEIFSCIKK [cdr2 427-435 KEIFSCIKK]: the t1/2 is 3.74.
On the same count and under the same terms, next, RQMNEQHAK [cdr2 74-82 RQMNEQHAK]: 3.85; ESHRKPLKR [cdr2 300-308 ESHRKPLKR]: 0.35.
On to QLGATGAYR [cdr2 236-244 QLGATGAYR], for which the t1/2 was found to be 0.2.
The same measure, in the same setting: next, LQLAAELGK [cdr2 28-36 LQLAAELGK]: 1; GQGRRSPGK [cdr2 140-148 GQGRRSPGK]: 2.8; SLAGSDIVK [cdr2 317-325 SLAGSDIVK]: 0.74.
Still for that read-out and setting: with LTVPESHRK [cdr2 296-304 LTVPESHRK] the figure was 4.59; with AQLSLERQK [cdr2 207-215 AQLSLERQK], 1.4; with LQAQLSLER [cdr2 205-213 LQAQLSLER], 0.56.

In the next experiment the target is HLA-A*0301 (human). The experiment in a line: iTopia net score.
In turn, VQTSRAAAK [cdr2 379-387 VQTSRAAAK] displayed an iScore of 0.279.
The same measure, in the same setting: with KEIFSCIKK [cdr2 427-435 KEIFSCIKK] the figure was 0.231; with RQMNEQHAK [cdr2 74-82 RQMNEQHAK], 0.147.
ESHRKPLKR [cdr2 300-308 ESHRKPLKR] yielded an iScore of 0.147.
QLGATGAYR [cdr2 236-244 QLGATGAYR]: the iScore was determined as 0.122.
Same read-out and setting: with LQLAAELGK [cdr2 28-36 LQLAAELGK] the figure was 0.086; with GQGRRSPGK [cdr2 140-148 GQGRRSPGK], 0.258.
Same read-out and setting: with SLAGSDIVK [cdr2 317-325 SLAGSDIVK] the figure was 0.14.
With LTVPESHRK [cdr2 296-304 LTVPESHRK], the iScore is 0.128.
On the same count and under the same terms, next, AQLSLERQK [cdr2 207-215 AQLSLERQK]: 0.075; LQAQLSLER [cdr2 205-213 LQAQLSLER]: 0.087.

In the next experiment the target is HLA-A*1101 (human). As to the kind of experiment: iTopia net score.
Regarding VQTSRAAAK [cdr2 379-387 VQTSRAAAK], the iScore turned out to be 0.343.
The same measure, in the same setting: with KEIFSCIKK [cdr2 427-435 KEIFSCIKK] the figure was 0.392.
On to RQMNEQHAK [cdr2 74-82 RQMNEQHAK], for which the iScore is 0.396.
Still for that read-out and setting: with ESHRKPLKR [cdr2 300-308 ESHRKPLKR] the figure was 0.063.
On the same count and under the same terms, next, QLGATGAYR [cdr2 236-244 QLGATGAYR]: 0.038; LQLAAELGK [cdr2 28-36 LQLAAELGK]: 0.194; GQGRRSPGK [cdr2 140-148 GQGRRSPGK]: 0.633.
Same read-out and setting: with SLAGSDIVK [cdr2 317-325 SLAGSDIVK] the figure was 0.283.
With LTVPESHRK [cdr2 296-304 LTVPESHRK], the iScore worked out at 0.558.
The same measure, in the same setting: with AQLSLERQK [cdr2 207-215 AQLSLERQK] the figure was 0.271; with LQAQLSLER [cdr2 205-213 LQAQLSLER], 0.118.

The values are drawn from patent publication US20090208538A1 (ROCKEFELLER UNIVERSITY, published 2009).
